Assay results published in the supplement of paper PMC9170038.

Test system: MS2 coat protein
Experiment: apparent KD of MS2 coat protein; designed switch direction (-1 OFF switch, 1 ON switch): 1; higher = weaker reporter binding
How it was run: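 The buffer was Tris-HCl pH 7.5 with KCl, MgCl2, BSA, DTT, tRNA and Tween-20. In it, SNAP-549-labelled MS2 coat protein was titrated in doubling steps from 0.7 or 1.5 nM to 3 µM over chip-bound RNA switches transcribed by stalled E. coli RNA polymerase on Illumina chips. Apparent KD is the per-design median over clusters of curve fits to normalised fluorescence.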

[1] = input ligand: microRNA oligo, concentration not stated
[2] = Eterna round: R95, input ligand: FMN 200 uM
[3] = Eterna round: R95, input ligand: microRNA oligo, concentration not stated
[4] = Eterna round: R95, input ligand: none

Row | Sequence | apparent KD of MS2 coat protein (input ligand: FMN 200 uM) [nM] | apparent KD of MS2 coat protein [1] [nM] | apparent KD of MS2 coat protein (input ligand: none) [nM] | apparent KD of MS2 coat protein [2] [nM] | apparent KD of MS2 coat protein [3] [nM] | apparent KD of MS2 coat protein [4] [nM]
1 | ACAUGAGGAUCACCCAUGUAACACCUGAAAAUAAAACGAACACAGGAUAUCCCGACAUGACGUUGGGAGAAGGGUGAUCGAAGA [Leenrien] (Eterna round: R96, puzzle: Same State NG 3) | 269 | 202 | 29.6 |  |  | 
2 | AUUGCUAGCACAGGAUAUCAUGCGAAAAUUGCGUGAGAAGGGUGGACGCUGUCAUUCACGGAGGACAUGAGGAUCACCCAUGUC [SameState NG1 #78] (Eterna round: R96, puzzle: Same State NG 1) | 54.4 | 53.4 | 62.6 |  |  | 
3 | CGACGCACGGCAGGAUAUCGAUUCCAAAGGAAUCGAGAAGGGCCUCAUGUCGUGGAAACGUGACAUGAGGAUCACCCAUGUUGC [Omei SS(NG)1 Cv19] (Eterna round: R96, puzzle: Same State NG 1) | 115 | 9.29 | 27.9 |  |  | 
4 | ACGCAGCUGGGUGAGGAUAUCGGUGGUAAAACAUGAGGAUCACCCAUGUCCGAAGCUCGGACUUCCGAGAAGGCGCCCGGCUGCG [Soinraesar] (puzzle: Same State 2) |  |  |  | 11.4 | 104 | 103
5 | GCCAUCGUAUGAGGAUAUGGCACCGUUUCGGUGCCAGAAGGCAUGUCAAUUGACAUGAGGAUCACCCAUGUAUUUUCGAUGGCA [JL Fiskers NG1ss - 33 mod 11] (Eterna round: R96, puzzle: Same State NG 1) | 74.6 | 385 | 779 |  |  | 
6 | GGUGCGAAUAAAGCCUACAUGAGGAUCACCCAUGUAUGUAGGCAGGAUAUCGUUUGCAAAGCAAACGAGAAGGGCUGUCGCACC [Mat - Same State NG 3 - JL Mod - D46] (Eterna round: R96, puzzle: Same State NG 3) | 29.9 | 55.2 | 100 |  |  | 
7 | GGUAUACAUGAGGAUCACCCAUGUCGUAUGACAUGAGGAUAUGUACAGACUUCGGUCUGUACAGAAGGCGUGUGUC [SS1 - 1011 Omei Mod 6] (puzzle: Same State 1) |  |  |  |  | 307 | 
8 | AUCCCAUCGGGAGGAUAUGGAACCUUAUUGGUUCUAGAAGGUCCAACAUGAGGAUCACCCAUGUGGGAGUGGUCUAAUGACCAC [SS NG10LRO01] (Eterna round: R96, puzzle: Same State NG 1) | 190 | 208 | 414 |  |  | 
9 | GGAGCCGGCCUAGGAUAUUUCAUAAUUUAACAUGAGGAUCACCCAUGUAGGCCAGAAGGCCUUGGGAAGAAGGAGGUCGGCUCC [Loop Effect - U26,U27,U28] (Eterna round: R96, puzzle: Same State NG 2) | 17.4 | 53.6 | 76.9 |  |  | 
10 | AGUCCAGCCUGAGCUGGACAAAGGCAUGUACAUGAGGAUCACCCAUGUCAUGUACAAGCUUUUUGCUCGUCUUAAAA [Zipper 46 - 1] (puzzle: Sensor for hsa-mir-208a) |  |  |  | 161 | 14.9 | 187
11 | AGGCAAGCUUUUUGCUGGUAUGGAGGAUAACAUGAGGAUCACCCAUGUAUUGGAGGUGUUGUGGAUUUGAGAAAGAA [JR_SHM208A_Sub004] (puzzle: Sensor for hsa-mir-208a) |  |  |  | 74 | 94.6 | 103
12 | GAGCCAGUCCGAGGAUAUUCAUAUUAAAUACAUGAGGAUCACCCAUGUAGGCUCAGAGAGCCUUGGGAGAAGGCGGACUGGCUC [Xeonanisa>>1] (Eterna round: R96, puzzle: Same State NG 2) | 24.9 | 63.6 | 113 |  |  | 
13 | CGACGCUGUCGAGAGGAUAUGCGGUGAUGGACAUGAGGAUCACCCAUGUUAGCGAUAGCAUUACGGUAGAAGGCUCUACAGCUGU [Soteed Omei mod 5] (puzzle: Same State 2) |  |  |  | 20.4 | 202 | 118
14 | CUCAAACAUGAGGAUCACCCAUGUGUUGUCAUGGGAGGAUAUCCCAGUUCGUUGUAGUCGGGAGAAGGCCUAUGUC [× ×•×ª×• ×ž×“×™× ×” × ×—×ª-13] (puzzle: Same State 1) |  |  |  |  | 54.9 | 
15 | UAAAAUAACACAGGAUAUGCAGACAACUCGUCGGCAGAAGGGUGAGACAUGAGGAUCACCCAUGUAAAAUAAGGGCGCCGCCCG [Diatera] (Eterna round: R96, puzzle: Same State NG 1) | 995 | 219 | 777 |  |  | 
16 | GAGUGAUGGGUUAGUAACUGCUGGGAAGGACAUGAGGAUCACCCAUGUGAGUAGCGAGCUUGUGCUCGUCUUAUUAG [JR_SHM208A_Sub023] (puzzle: Sensor for hsa-mir-208a) |  |  |  | 207 | 114 | 379
17 | UGAAUAAUGAUAGGAUAUACAUGAGGAAUCCUCGUAGAAGGAUCAUGACAUGAGGAUCACCCAUGUAGCGCUCGAAAGAGCGCA [Mat - Same State NG 1 - JL mod - D52] (Eterna round: R96, puzzle: Same State NG 1) | 186 | 54.9 | 232 |  |  | 
18 | GACAAUCUAUCUGAGGAUAUCAUGAAGAAAACAUGAGGAUCACCCAUGUGCAGGAUAACUGCAAAUGAGAAGGCAGAUAGAUUGU [Mat - Same State 2 - Mod - D6] (puzzle: Same State 2) |  |  |  | 17.1 | 17.8 | 22.4
19 | AUAAGACAGGCAGGAUAUGGGCCUGACUCUGAUAUCAGAGUCUACACAUGAGGAUCACCCAUGUCCCAGAAGGGCCUGAAGAAG [Zavean] (Eterna round: R96, puzzle: Same State NG 2) | 17.6 | 92.2 | 102 |  |  | 
20 | UUGCGGGCUUGAGGAUAUUGAGUACAUAUGUUUAACAUGAGGAUCACCCAUGUGGGUUGCGGUAUCGAGAAGGUGGCUUCCUGC [salish99_SSNG2_r04_813] (Eterna round: R96, puzzle: Same State NG 2) | 81.9 | 82.7 | 74.8 |  |  | 
21 | GGUAGGUUACUACCAGACAUGAGGAUCACCCAUGUAAGUGGGAAGGAUAUGGUACCGUUUCGGUACCAGAAGGUCCUAUGUAAG [JL SSNG3 1.45] (Eterna round: R96, puzzle: Same State NG 3) | 269 | 88.7 | 936 |  |  | 
22 | GGUAGGUUACUACCAAACUACAUGAGGAUCACCCAUGUGUGGGAGGAUAUGGUACCUAUUUGGUACCAGAAGGUCCAAUUAAUU [Fiskers NG3ss - 6] (Eterna round: R96, puzzle: Same State NG 3) | 108 | 106 | 124 |  |  | 
23 | GUGGUCAGACAUGAGGAUCACCCAUGUGGAAUAAAUAAGGUUUAGGAUAUGGAAUAUAGGAUAUACCAGAAGGGAGGGUUGGUG (Eterna round: R96, puzzle: Same State NG 3) |  | 90.4 |  |  |  | 
